Reference: the DeepSol protein solubility set

Assay: soluble on expression in E. coli; label from the status in PepcDB or PDB records

Sequence	soluble on expression in E. coli
MRDTIPVTILSGSLGAGKTTLLNHLLTEAGDRDIAVLVNDMGTVNVDAELIAEGSELDVDDGVAELSNGCICCELQDDLETAVVRLADDRDFDALVVESSGISEPAPVARLFTTESRVAALYRVDTLVTVLDTRLFLDSFAGETPERRGSGEASADGDGDDTEADGADRPLSDLMVEQVELSNLVVLNKTDLCTDEEMDEAEELVRALQPDAETIRTTFSQVDPDRLFDRALFDQTEISDLPGWKRALAESGHGHGEGSHDHGGDSHETDAHEGDTGHGHDDHHHPEEVYGVTSFTYRRRRPFHPDRLAEVLQDLPSGVVRSKGTVWLAGSERRVVIGQAGPSIRAEAQGPWIASLPEVEQDMYRSNRPELDWHDEHGDRRTELVFIGTDYDESALRTALDDALVTDEEWTESESLTGPFPAEQGEEAVIRSP	not soluble
GSSIFDIYVVTADYLPLGAEQDAITLREGQYVEVLDAAHPLRWLVRTKPTKSSPSRQGWVSPAYLDRRLKL	soluble
MPITPPLNIISPKLYPNEQWNESEALGAITWLWYQSPTHRQVPIVEMMTYILPVLKNGQFALFCKGTQPIGYISWAYFDEVAQAHYLESDRHLRDNSDWNCGDNIWLIQWFAPLGHSHQMRSAVRQLFPSTTVRALYHKGSDKGLRILTFKT	not soluble
MGHHHHHHSHNFHYGAGHPMKPHRLALTHSLVLHYGLYKKMIVFKPYQASQHDMCRFHSEDYIDFLQRVSPTNMQGFTKSLNAFNVGDDCPVFPGLFEFCSRYTGASLQGATQLNNKICDIAINWAGGLHHAKKFEASGFCYVNDIVIGILELLKYHPRVLYIDIDIHHGDGVQEAFYLTDRVMTVSFHKYGNYFFPGTGDMYEVGAESGRYYCLNVPLRDGIDDQSYKHLFQPVINQVVDFYQPTCIVLQCGADSLGCDRLGCFNLSIRGHGECVEYVKSFNIPLLVLGGGGYTVRNVARCWTYETSLLVEEAISEELPYSEYFEYFAPDFTLHPDVSTRIENQNSRQYLDQIRQTIFENLKMLNHAPSVQIHDVPADLLTYDRTD	not soluble
MGSDKIHHHHHHMRILSGMRPTGKLHIGHLVGALENWVKLQEEGNECFYFVADWHALTTHYDDVSKLKEYTRDLVRGFLACGIDPEKSVIFVQSGVKEHAELALLFSMIVSVSRLERVPTYKEIKSELNYKDLSTAGFLIYPVLQAADILIYKAEGVPVGEDQVYHIELTREIARRFNYLYDEVFPEPEAILSRVPKLPGTDGRKMSKSYGNIINLEISEKELEQTILRMMTDPARVRRSDPGNPENCPVWKYHQAFDISEEESKWVWEGCTTASIGCVDCKKLLLKNMKRKLAPIWENFRKIDEDPHYVDDVIMEGTKKAREVAAKTMEEVRRAMNLMF	soluble
AHHHHHHGSGKTGIEYFDNFILKDGFPDGSLILVAGEPGAGKTIFSATYLYNGAKKFGEKGVYISLAETKREFYEAMKQLGMDFEELEKKGLFRFIDLVTVSRGAIEKEIQFLMSEISSFQPKRVVIDSISVFAQILGLEKTRVFLHTMLGRFIKAYNATALLIAEKPMGSKTIGHGVEEFVVDGVIILKYKSLGEITRRVMEIPKMRRRSVERAEYEYVITKNGIEFLELPDLVRDKGEYTLEKITTGIEKLDKMLDGGYTRDQMF	soluble
SAGPQQQPPYLHLAELTASQFLEIWKHFDADGNGYIEGKELENFFQELEKARKGSGMMSKSDNFGEKMKEFMQKYDKNSDGKIEMAELAQILPTEENFLLCFRQHVGSSTEFMEAWRKYDTDRSGYIEANELKGFLSDLLKKANRPYDEPKLQEYTQTILRMFDLNGDGKLGLSEMSRLLPVQENFLLKFQGMKLTSEEFNAIFTFYDKDRSGYIDEHELDALLKDLYEKNKKEMNIQQLTNYRKSVMSLAEAGKLYRKDLEIVLCSEPPM	soluble
MGTFNNSIQEKIEKLQKTVDTLLHMGENMDCICVDDLSLLNKEIHEQINDLYPYHGKTAEQEAALCLSLLMGYSVSMYANSEDEAKKKTVLRRSQMILKNQLPSPLKIQLHTIYDKLLS	not soluble
MGSLKIYPSKLSGDVKIPPSKSMAHRAVICSSLSNGKSRISNIDFSDDIIATIRAMTSLGAIIEKKEDILEISGIFSKEGILNRENQLNQPKLTIDCNESGSTLRFLVPISLAFDGVKRFIGRGNLGKRPLDTYYEIFDRQNIKYSYKENQLDLIISGKLKPDEFRVKGNISSQFITGLLFILPTLESDSKIIITTELESKGYLDLTLSTIKDFGVEIINNNYKEFIIKGNQTYKARDYKVEGDYSQGAFYLSADAIGEDISILDLKEDSLQGDSEVVEILSRMGMEILREGNKIKGITNGLNGTLIDASQCPDIIPVLSVVASLSIGKTTIINAGRLRIKECDRLHAINVELSKLGANIEEKEDSLIIEGVSKLNGGVEVWSHKDHRIAMTLAIASCRCDKPIILKDFECVSKSYPHFFKDFKMLGGRIDEWNMGK	not soluble
MGSDKIHHHHHHAQLSDNGYANVDWQFNAPLKNHFADKASGWGMNFEGGYFVTPNLGLGLFMNYSSNHEYFPRATFPVGEGTVNTDQQHTIFQLPFGAAARYQMNRGGAWQPYFGVKLGANYAKVRSNYNMFETRDNTWGFYVSPEIGLNVYPWAYGPGLHIAVYYSYATNKANVLTYNVDKLNNFGFRVGLAF	not soluble
MFEAKLANAGLLKKIVESIKDLVTDAPFDCSETAMSLQAMDSSHVALVSLKLEVGLFDTYRCDRTINLGLSLANMSKALKCANNDDTCMLKYEENEGDSIIFTFADPKRDKTQDVTVKMMDIDSEHLGIPDQDYAVVCEMPAGEFQKTCKDLSTFSDSLNITATKAGIVFTGKGDIGSSVVTYSPSSNTDDETEAVTLEVKDPVNVNFSIKYMNQFTKATALSDRVRLSLCNDVPVVVEYPIEENGYLRFYLAPKIDDDENMD	soluble
MGSDKIHHHHHHMRKWLLGVTAALALTALAACGTESSSTSGEEDQDVTIGYFPNLDHAAAIVGKEKGFFAEELGEEKVEFTHFPNGNDFIEALSTGSIDIGYVGPGPAINYYLTGGDVVVLGSAANGATLIVARDGSGIDTLDDFDGKSFCTPGNGCTHNVQLEIMLKELGLESNRVGGTVEHQSRIAPSNMVAMFEQGQIDAAAAPEPWGTYLVEELGAHVVAEWNDVFLGEELASVVVVTTREFLENHPEQVEAFLRAHVKSVEFAQEDVDATLETVNDALFDLTQNRLPEDVLYKAWERMAVTTDTYPDALQAWADASYELKFMDEDPNLDGFVDTSLLDSILSE	not soluble
MNGASPAHSLVSTTAVAGGGGSSGAAAGLDDFHFPPDIPSMQERKDEAMRVLKADLMTELDKEVKSLEEDSWMFEGPRSRIHLISRRGNFLKKGGEVKLW	not soluble
MSLTKDPEWLTKEFAGNPIRTGRTIEDPDFPRIAITYSIQENEDNSKQIQDEMKDIIKDYNDYYHTAWSIEDIERYNGDINNRLARKKAEFKEFGKQIDLVIVVDRLLTGFDAPTIQTLFVDRNLSYANLIQAFSRTNRTYPGKTKGLIVTFRKPSTMEQNVKDATKLYSEAQEESDLVYPTYDESKKRFKKAHKLLTTLVPNPTDINEHSPLEIRIEFVKAFQELNNTYEALVTYDEYNDDMEKSKVLQEQINTLEEYIGVYNTVKGSLVDEGAQDGPGPDFSGIEFYGENAIKVYDIDSTYIDRLLGTYSANNQNIRDEIEKALQKLKKLEIVKDVYRAMLNAIDTKKIDSEEDILVVKRRFFTESYDKAIKEFANTWFVEGNELHLSAIQYVIGSDPIPNIRGIINSKQFDKYKAIHPDAKPLKYGPEMKRQWRKTLDEVIVPLADELREGHHHHHH	soluble
MSLKNTLILGIESSCDETAASVVKNGNEIISSVVASQIESHKRFGGVVPEIASRHHVEQITLVIEEALKQANVTMDDLDGVAVTEGPGLVGALLIGVNAAKTLAFMHNLPLVGVHHIAGHIYANRFETEFKFPLLSLVVSGGHTELVLMKADNEFEIIGETRDDAAGEAYDKVARTLGLAYPGGVQIDKLAKDGEDTFHFPRAMMDEGSFDFSFSGLKSSFINTLHNLRQRGEEPNPNDMAASFQASVVDVLVSKTIRAAKQYDVKQLLLAGGVAANQGLRERLIQEVKLELPETELIIPPLALCGDNAAMIAAAGTVSFLQGKRSGFDMNANPGLLLEDIEGHHHHHH	soluble
MTHLLETKNLSVSFGEHHVIKDVNLIVQKGKLISIIGPNGAGKTTLFNLLSGQISPTKGEVYFKGQEITKLSISDRTRLGIGRSFQLTNIFPELTVLENVRLSVQSFVQDYYSFFPSSAKFKQQVGEARRFLKTVLLQEKEHVLAKDLAHGEKRKLELAMLLALKTDVLLLDEPTAGISVEEVPAILQVIENIKKHPESTIVLIEHKMDMVLGLSDHLIVLFHGELLAEGMPEEIMKDERVQSAYLGGLYSGTITSE	not soluble
MLILSFLCPAFLNAQIVTDERMFSFEEPQLPACITGVQSQLGISGAHYKDGKHSLEWTFEPNGRLELRKDLKFEKKDPTGKDLYLSAFIVWIYNEQPQDAAIEFEFLKDGRKCASFPFGINFKGWRAAWVCYERDMQGTPEEGMNELRIVAPDAKGRLFIDHLITATKVDARQQTADLQVPFVNAGTTNHWLVLYKHSLLKPDIELTPVSDKQRQEMKLLEKRFRDMIYTKGKVTEKEAETIRKKYDLYQITYKDGQVSGVPVFMVRASEAYERMIPDWDKDMLTKMGIEMRAYFDLMKRIAVAYNNSEAGSPIRKEMRRKFLAMYDHITDQGVAYGSCWGNIHHYGYSVRGLYPAYFLMKDVLREEGKLLEAERTLRWYAITNEVYPKPEGNGIDMDSFNTQTTGRIASILMMEDTPEKLQYLKSFSRWIDYGCRPAPGLAGSFKVDGGAFHHRNNYPAYAVGGLDGATNMIYLFSRTSLAVSELAHRTVKDVLLAMRFYCNKLNFPLSMSGRHPDGKGKLVPMHYAIMAIAGTPDGKGDFDKEMASAYLRLVSSDSSSAEQAPEYMPKVSNAQERKIAKRLVENGFRAEPDPQGNLSLGYGCVSVQRRENWSAVARGHSRYLWAAEHYLGHNLYGRYLAHGSLQILTAPPGQTVTPTTSGWQQEGFDWNRIPGVTSIHLPLDLLKANVLNVDTFSGMEEMLYSDEAFAGGLSQGKMNGNFGMKLHEHDKYNGTHRARKSFHFIDGMIVCLGSDIENTNMDYPTETTIFQLAVTDKAAHDYWKNNAGEGKVWMDHLGTGYYVPVAARFEKNFPQYSRMQDTGKETKGDWVSLIIDHGKAPKAGSYEYAILPGTDRKTMTAFAKKPAYSVLQQDRNAHILESPSDRITSYVLFETPQSLLPGGLLQRTDTSCLVMVRKESADKVLLTVAQPDLALYRGPSDEAFDKDGKRMERSIYSRPWIDNESGEIPVTVTLKGRWKVVETPYCKVVSEDKKQTVLRFLCKDGASYEVELEKLEHHHHHH	soluble
NMRQVLKTDRLVLEPQSMARFDQWFAMERQRDEAGHRDLTEDQAWLRLCARQGMWDAYACGFYYLLDPVSGEMRGEAGFQFRRRGFGPGFDNHPEAAWAVASAHQGRGLAAEAMQALLAHHDRSSGRQRVVALIARSNLPSLRLAERLG	not soluble
MSLKKSWLGYAQGYLLYRDLNNHSMTAIRISPETLEQDGTVLLPDCHTEGQNILFTDGEYINQIAASRDDGFVVRIFATSTEPVLQQELQLKLARKCLHACGISLFDLEKDLHIISTGFDEESAILGAGREFALMKTANGKIYYTGKYQSLGIKQGGPSAGKWVELPITKSPKIVHFSVGHDGSHALLVAEDGSVFFTGSASKGEDGESTKSRRQSKPYKPKKIIKMEGKIVVYTACNNGSSSVISKDGELYMFGKDAIYSDSSSLVSDLKGHFVTQVAMGKAHTCVLMKNGEVWTFGVNNKGQCGRDTGAMNQGGKGFGVENMATAMDEDLEEELDEKDEKSMMCPPGMHKWKLEQCMVCTVCGDCTGYGASCVSSGRPDRVPGGICGCGSGESGCAVCGCCKACARELDGQEARQRGILDAVKEMIPLDLLLAVPVPGVNIEEHLQLRQEEKRQRVIRRHRLEDGRGPLVFAGPIFMNHREQALARLRSHPAQLKHKRDKHKDGSGDRGEKDASKITTYPPGSVRFDCELRAVQVSCGFHHSVVLMENGDVYTFGYGQHGQLGHGDVNSRGCPTLVQALPGPSTQVTAGSNHTAVLLMDGQVFTFGSFSKGQLGRPILDIPYWNAKPAPMPNIGSKYGRKATWIGASGDQTFLRIDEALINSHEGHHHHHH	not soluble
